B1: Rif1 C-terminal 148-aa polypeptide (aa 1253 to 1400) (domain or fragment, S. pombe, UniProt Q96UP3 1253-1400, looked up)
chain: SSNVNKEVAISEVSATLENVEVIERHGISEQGQNLDESACVLTNESSLSQTEIPEEKTENETTAVNGFENSKKRQFSSLLSGSIDTNNESNKVSSVEFDKSGPQDIIQSMTEATFEIEKNIQDLKSEEVQKLSDLLMRLQRAILSRIA
notes: Rif1, fission yeast (S. pombe), 1,400 amino acids; residues 1253-1400; source: E. coli, purified (nickel column, Mono Q column if necessary)
B2: Rif1 C-terminal 272-aa polypeptide (aa 1129 to 1400), wild type (domain or fragment, S. pombe, UniProt Q96UP3 1129-1400, looked up)
chain: KIDETKNEATDMEESLTTPSGKVNKEVIVDDTSLRDEAIVPDKAIDVADNSNALLKENISSQSNRKADNNGTPSVNNSFTTANNDECSKENSQIEPEGQTASREGVLSTPRSTRKKRKLGRKSQSSNVNKEVAISEVSATLENVEVIERHGISEQGQNLDESACVLTNESSLSQTEIPEEKTENETTAVNGFENSKKRQFSSLLSGSIDTNNESNKVSSVEFDKSGPQDIIQSMTEATFEIEKNIQDLKSEEVQKLSDLLMRLQRAILSRIA
notes: Rif1, fission yeast (S. pombe), 1,400 amino acids; C-terminal polypeptides were also made in 293T cells (N-terminal His6, C-terminal Flag3); also called Rif1(aa1129-1400); C-terminal polypeptide; source: E. coli, purified (nickel column, Mono Q column if necessary)
B3: Rif1 C-terminal 91-aa polypeptide (aa 1310 to 1400) (domain or fragment, S. pombe, UniProt Q96UP3 1310-1400, looked up)
chain: TENETTAVNGFENSKKRQFSSLLSGSIDTNNESNKVSSVEFDKSGPQDIIQSMTEATFEIEKNIQDLKSEEVQKLSDLLMRLQRAILSRIA
notes: Rif1, fission yeast (S. pombe), 1,400 amino acids; residues 1310-1400; also called C-terminal 91 amino acids; source: E. coli, purified (nickel column, Mono Q column if necessary)
B4: Rif1 C-terminal 229-aa polypeptide (aa 1172 to 1400) (domain or fragment, S. pombe, UniProt Q96UP3 1172-1400, looked up)
chain: AIDVADNSNALLKENISSQSNRKADNNGTPSVNNSFTTANNDECSKENSQIEPEGQTASREGVLSTPRSTRKKRKLGRKSQSSNVNKEVAISEVSATLENVEVIERHGISEQGQNLDESACVLTNESSLSQTEIPEEKTENETTAVNGFENSKKRQFSSLLSGSIDTNNESNKVSSVEFDKSGPQDIIQSMTEATFEIEKNIQDLKSEEVQKLSDLLMRLQRAILSRIA
notes: Rif1, fission yeast (S. pombe), 1,400 amino acids; residues 1172-1400; source: E. coli, purified (nickel column, Mono Q column if necessary)

Target: the molecule itself
Test: native gel or EMSA; purified Rif1 C-terminal polypeptides on a native protein gel (5% to 20% gradient gel), CBB staining; self-association

Stoichiometry N, ≤ 16 subunits:
B1
B2
B3
B4

From paper PMC6362314, “Both a Unique Motif at the C Terminus and an N-Terminal HEAT Repeat Contribute to G-Quadruplex Binding and Origin Regulation by the Rif1 Protein” (Molecular and Cellular Biology, 2018)
